Values of other authors in article PMC12667676.

Target: MCHR1 (Homo sapiens) (UniProt Q99705)
UniProt Q99705, sequence (Q99705 whole entry): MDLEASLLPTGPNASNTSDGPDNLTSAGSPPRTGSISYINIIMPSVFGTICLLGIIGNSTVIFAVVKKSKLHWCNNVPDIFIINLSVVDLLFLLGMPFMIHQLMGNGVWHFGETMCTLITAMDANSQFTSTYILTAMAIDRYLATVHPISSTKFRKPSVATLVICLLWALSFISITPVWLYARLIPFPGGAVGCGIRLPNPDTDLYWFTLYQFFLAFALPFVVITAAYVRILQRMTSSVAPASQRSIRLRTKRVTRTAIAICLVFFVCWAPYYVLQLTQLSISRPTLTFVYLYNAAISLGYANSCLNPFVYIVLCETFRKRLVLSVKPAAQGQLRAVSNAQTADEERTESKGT

For “melanin-concentrating hormone (from UniProt P20382)”, the Kd is given as 3.1 nM.
